The text below walks through data of patent US20020034812.

The labels stand for the following.
T1: 35S-methionine-labeled His6-tagged murine caspase-14
T1 sequence: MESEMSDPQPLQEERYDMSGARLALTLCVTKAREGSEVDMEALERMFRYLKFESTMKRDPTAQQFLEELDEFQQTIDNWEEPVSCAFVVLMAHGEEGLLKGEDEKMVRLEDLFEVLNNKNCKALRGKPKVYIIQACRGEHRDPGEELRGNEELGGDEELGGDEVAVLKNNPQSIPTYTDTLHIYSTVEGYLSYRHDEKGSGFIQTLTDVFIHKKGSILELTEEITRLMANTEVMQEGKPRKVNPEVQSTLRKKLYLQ

T2: radiolabeled murine caspase-3 (UniProt P70677)
T2 sequence: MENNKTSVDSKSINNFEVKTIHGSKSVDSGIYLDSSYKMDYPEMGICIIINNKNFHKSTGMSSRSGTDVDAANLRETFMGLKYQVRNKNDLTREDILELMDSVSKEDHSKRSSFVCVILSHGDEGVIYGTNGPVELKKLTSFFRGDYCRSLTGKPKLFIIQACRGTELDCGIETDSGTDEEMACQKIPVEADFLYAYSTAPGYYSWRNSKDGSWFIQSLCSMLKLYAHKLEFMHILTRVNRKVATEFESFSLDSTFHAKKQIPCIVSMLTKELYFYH

T3: 35S-methionine-labeled His6-tagged murine caspase-14
T3 chain: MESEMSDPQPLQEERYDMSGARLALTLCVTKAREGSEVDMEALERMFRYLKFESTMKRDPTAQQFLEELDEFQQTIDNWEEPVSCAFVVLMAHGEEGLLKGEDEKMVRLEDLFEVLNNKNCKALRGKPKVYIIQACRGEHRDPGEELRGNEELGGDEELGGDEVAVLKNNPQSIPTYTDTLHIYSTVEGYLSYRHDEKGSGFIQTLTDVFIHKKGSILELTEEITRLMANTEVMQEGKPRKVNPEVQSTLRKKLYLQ

B1: purified murine caspase-2 (protein)
chain: GPPCLLVKPCTPEFYQAHYQLAYRLQSQPRGLALVLSNVHFTGEKDLEFRSGGDVDHTTLVTLFKLLGYNVHVLHDQTAQEMQEKLQNFAQLPAHRVTDSCVVALLSHGVEGGIYGVDGKLLQLQEVFRLFDNANCPSLQNKPKMFFIQACRGDETDRGVDQQDGKNHTQSPGCEESDAGKEELMKMRLPTRSDMICGYACLKGNAAMRNTKRGSWYIEALTQVFSERACDMHVADMLVKVNALIKEREGYAPGTEFHRCKEMSEYCSTLCQQLYLFPGYPPT
B2: purified murine caspase-11 (protein)
chain: PGSHHGEANLEMEEPEESLNTLKLCSPEEFTRLCREKTQEIYPIKEANGRTRKALIICNTEFKHLSLRYGANFDIIGMKGLLEDLGYDVVVKEELTAEGMESEMKDFAALSEHQTSDSTFLVLMSHGTLHGICGTMHSEKTPDVLQYDTIYQIFNNCHCPGLRDKPKVIIVQACRGGNSGEMWIRESSKPQLCRGVDLPRNMEADAVKLSHVEKDFIAFYSTTPHHLSYRDKTGGSYFITRLISCFRKHACSCHLFDIFLKVQQSFEKASIHSQMPTIDRATLTRYFYLFPGN
B3: purified murine caspase-3 (protein)
chain: SGIYLDSSYKMDYPEMGICIIINNKNFHKSTGMSSRSGTDVDAANLRETFMGLKYQVRNKNDLTREDILELMDSVSKEDHSKRSSFVCVILSHGDEGVIYGTNGPVELKKLTSFFRGDYCRSLTGKPKLFIIQACRGTELDCGIETDSGTDEEMACQKIPVEADFLYAYSTAPGYYSWRNSKDGSWFIQSLCSMLKLYAHKLEFMHILTRVNRKVATEFESFSLDSTFHAKKQIPCIVSMLTKELYFYH
B4: purified murine caspase-6 (protein)
chain: GFYKSREVFDPAEQYKMDHKRRGVALIFNHERFFWHLTLPERRGTNADRDNLTRRFSDLGFEVKCFNDLRAEELLLKIHEVSTSSHIDADCFICVFLSHGEGNHVYAYDAKIEIQTLTGLFKGDKCQSLVGKPKIFIIQACRGSQHDVPVVPLDMVDHQTDKLDNVTQVDAASVYTLPAGADFLMCYSVAEGYYSHRETVNGSWYIQDLCEMLARYGSSLEFTELLTLVNRKVSQRRVDFCKDPDAIGKKQVPCFASMLTKKLHFCPKPSK
B5: purified murine caspase-1 (protein)
chain: NKEDGTFPGLTGTLKFCPLEKAQKLWKENPSEIYPIMNTTTRTRLALIICNTEFQHLSPRVGAQVDLREMKLLLEDLGYTVKVKENLTALEMVKEVKEFAACPEHKTSDSTFLVFMSHGIQEGICGTTYSNEVSDILKVDTIFQMMNTLKCPSLKDKPKVIIIQACRGEKQGVVLLKDSVRDSEEDFLTDAIFEDDGIKKAHIEKDFIAFCSSTPDNVSWRHPVRGSLFIESLIKHMKEYAWSCDLEDIFRKVRFSFEQPEFRLQMPTADRVTLTKRFYLFPGH
B6: purified murine caspase-7 (protein)
chain: AKPDRSSIISSILLKKKRNASAGPVRTGRDRVPTYLYRMDFQKMGKCIIINNKNFDKATGMDVRNGTDKDAGALFKCFQNLGFEVTVHNDCSCAKMQDLLRKASEEDHSNSACFACVLLSHGEEDLIYGKDGVTPIKDLTAHFRGDRCKTLLEKPKLFFIQACRGTELDDGIQADSGPINDIDANPRNKIPVEADFLFAYSTVPGYYSWRNPGKGSWFVQALCSILNEHGKDLEIMQILTRVNDRVARHFESQSDDPRFNEKKQIPCMVSMLTKELYFSR
B7: purified murine granzyme B (protein)
chain: IIGGHEVKPHSRPYMALLSIKDQQPEAICGGFLIREDFVLTAAHCEGSIINVTLGAHNIKEQEKTQQVIPMVKCIPHPDYNPKTFSNDIMLLKLKSKAKRTRAVRPLNLPRRNVNVKPGDVCYVAGWGRMAPMGKYSNTLQEVELTVQKDRECESYFKNRYNKTNQICAGDPKTKRASFRGDSGGPLVCKKVAAGIVSYGYKDGSPPRAFTKVSSFLSWIKKTMKSS

The first data set has as its system T1, 35S-methionine-labeled His6-tagged murine caspase-14.
Turning to “murine caspase-8 (prodomain-deleted, lysate of E. coli expressing pLT-DpromCASP-8)”, the “in vitro cleavage of 35S-methionine-labeled His6-tagged murine caspase-14, SDS-PAGE and autoradiography” value was “murine caspase-8 cleaved this 35.5 kDa murine caspase-14 weakly into 24 kDa (p18) and 11 kDa (p11) fragments”.

The target of a further data set is T2, radiolabeled murine caspase-3.
Consider “murine caspase-8 (prodomain-deleted, lysate of E. coli expressing pLT-DpromCASP-8)”, for which the “efficiency of proteolysis by serial 1:5 dilution of caspase-8 lysate, caspase-3 against caspase-14 as substrate” value is “proteolytic activity of caspase-8 was at least 1000 times more efficient on caspase-3 than on murine caspase-14”.

The target in the next data set is T3, 35S-methionine-labeled His6-tagged ….
Take B1: the “in vitro cleavage of radiolabeled caspase-14” value is reported as “none of the active enzyme preparations were able to cleave caspase-14”.

B2: the “in vitro cleavage of radiolabeled caspase-14” value is “none of the active enzyme preparations were able to cleave caspase-14”.

Regarding B3, the “in vitro cleavage of radiolabeled caspase-14” value is “none of the active enzyme preparations were able to cleave caspase-14”.

Turning to B4, the “in vitro cleavage of radiolabeled caspase-14” value is reported as “none of the active enzyme preparations were able to cleave caspase-14”.

Take B5: the “in vitro cleavage of radiolabeled caspase-14” value is on record as “none of the active enzyme preparations were able to cleave caspase-14”.

For B6, the “in vitro cleavage of radiolabeled caspase-14” value is given as “none of the active enzyme preparations were able to cleave caspase-14”.

Take B7: the “in vitro cleavage of radiolabeled caspase-14” value is “none of the active enzyme preparations were able to cleave caspase-14”.
